The results in this text go back to PMC8707168, “PL1 Peptide Engages Acidic Surfaces on Tumor-Associated Fibronectin and Tenascin Isoforms to Trigger Cellular Uptake” (Pharmaceutics, 2021).

By Kd is commonly meant the free concentration of one partner at which half of the binding sites on the other are occupied at equilibrium, for simple one-to-one binding.

One assay concerns U87-MG cells. Briefly: Effect of endocytosis inhibitors on PL1-AgNP uptake (flow cytometry). The format is cell-based. As to conditions: pre-incubation with 50 μM Nystatin, 50 μM EIPA, 4 μM Cytochalasin D or 10 μM Chlorpromazine, PL1-AgNPs 37 °C 1 h, etching, three independent experiments. How it is done: For characterization of the AgNP uptake pathway in glioma cells, the U87-MG cells were cultured until 80–90% confluency and pre-incubated with the following endocytosis inhibitors: (1) 50 μM Nystatin to block caveolae/lipid-mediated endocytosis, (2) 50 μM 5-(N-ethyl-N-isopropyl)-Amiloride (EIPA) to block […], (3) 4 μM Cytochalasin D to block actin polymerization and […], and (4) 10 μM Chlorpromazine to block clathrin-mediated endocytosis. The PL1-AgNPs or control biotin-AgNPs were then added, and the cells were incubated at 37 °C for 1 h and subsequently washed to remove free particles. Some samples were also treated with an etching solution to remove accessible surface-bound AgNPs. The fluorescence of the labeled AgNPs was detected and analyzed using the BD Accuri 6 flow cytometer in the 555 nm channel.
(A flow cytometer gives signals particle by particle.)

The next assay concerns the target T1, TNC-C WT and mutants (Homo sapiens, UniProt P24821, D1565N/D1571N).
T1 construct: Tenascin C C-isoform (TNC-C); made in house; host or cells: E. coli BL21 Rosetta 2 (DE3) pLysS
T1 sequence (P24821 1527-1617 D1565N/D1571N): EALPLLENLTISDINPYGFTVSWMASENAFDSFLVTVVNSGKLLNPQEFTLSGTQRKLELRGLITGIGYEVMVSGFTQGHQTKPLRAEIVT
Briefly: Binding of PL1 nanoworms to recombinant TNC-C proteins. To be noted: FAM-labeled NWs, 80 µg/reaction, protein on Ni-NTA beads, fluorescence 485/535 nm, baseline corrected with control protein P32; three independent experiments. How it is done:
(§1) Wild type (WT) TNC-C and FN-EDB were prepared as described previously. The DNA inserts encoding for hexahistidine-tagged mutant TNC-C variants (TNC-C E48Q, TNC-C D39N D45N, TNC-C D13N E70Q E88Q) and mutant FN-EDBs variants (FnEDB D68N D70N, FnEDB D52N D49N D12N, FnEDB E42Q D68N E64Q) were synthesized and cloned into pET28a+ expression vectors (GenScript Biotech BV, Netherlands). The resulting plasmids were transformed into the E. coli BL21 Rosetta 2 (DE3) pLysS strain (Novagen, #70956). The protein expression was induced with 0.5 mM IPTG and followed by culturing at 20 °C for 16 h. The bacterial cells were lysed by sonication (Bandelin Sonopuls HD 2070, Merck, Germany) in ice-cold IMAC buffer (25 mM Tris-HCL, 400 mM NaCl, 25 mM imidazole pH 8, protease inhibitors cocktail, DNase I, 1 mM MgCl2). […] The protein concentration was measured by bicinchoninic acid (BCA) assay (Thermo Scientific #23227). The protein purity and size were analyzed using 15% SDS-PAGE.
(§2) The recombinant hexahistidine-tagged TNC-C and EDB WT and mutant proteins (at 60 µg of protein/40 µL beads in PBS) were immobilized to Ni-NTA Magnetic Agarose Beads (QIAGEN, Hilden, Germany) at RT for 1 h. […] The fluorescence of eluted samples was quantified using a Victor X5 Multilabel Plate Reader (PerkinElmer, MA, USA) at an excitation wavelength of 485 nm and an emission wavelength of 535 nm.

The next assay deals with T2, FN-EDB WT and mutants (Homo sapiens, UniProt P02751, D1277N/D1314N/D1317N).
T2 construct: Fibronectin Extra Domain B (FN-EDB); made in house; host or cells: E. coli BL21 Rosetta 2 (DE3) pLysS
Briefly: Binding of PL1 nanoworms to recombinant FN-EDB proteins. As to conditions: FAM-labeled NWs, 80 µg/reaction, protein on Ni-NTA beads, fluorescence 485/535 nm, baseline corrected with control protein P32; three independent experiments. How it is done: as §1, §2

For assay [1], the target named is Fibronectin Extra Domain B, wild type, hexahistidine-tagged (human) (UniProt P02751). Briefly: fluorescence polarisation; fluorescence anisotropy saturation binding in solution; fixed FAM-PL1, 0-112 µM FN-EDB or 0-275 µM TNC-C; PBS with 0.1% Pluronic F-127; 24 h at 25 °C; non-specific binding with 500 µM Biotin-Ahx-PL1; global fit, single site with ligand depletion. (In general: Polarisation of emitted light reports the rotation of a fluorescent probe.)

In assay [2] the target is Tenascin C C-isoform, wild type, hexahistidine-tagged. The description is as above.
Assay [3] addresses T3, PL1-functionalized iron oxide nanoworms (FAM-labelled PL1 peptide on NWs).
T3 chain: PPRRGLIKLKTS
Put plainly: fluorescence readout of FAM-labeled PL1-NW binding to protein-coated NiNTA beads. As to conditions: chain shown with the change; baseline correction with control protein P32; parent: est. 100; read off a plot.

Assay [4] has as its target T4, PL1 peptide displayed on T7 phage.
T4 chain: PPRRGLIKLKTS
Put plainly: phage binding to immobilized recombinant protein (Ni-NTA magnetic beads). To be noted: chain shown with the change;; parent: est. 100; read off a plot.

The target of assay [5] is Fibronectin Extra Domain B mutant D52N D49N D12N, hexahistidine-tagged (human). Briefly: binding of fluorescent peptide nanoworms to protein-coated beads; His-tagged proteins (60 µg/40 µL beads) on Ni-NTA magnetic agarose beads; FAM-labelled PL1-NW 80 µg/reaction in PBS, 1% BSA, 0.1% NP40; 6 washes; eluted with 500 mM imidazole; fluorescence 485/535 nm; percent of WT after baseline correction with control protein P32.

Assay [6] shares this target. Put plainly: phage binding assay (titre of eluted phage); His-tagged proteins (30 µg/10 µL beads) on Ni-NTA magnetic agarose beads; T7 phage 5 x 10^8 pfu in 100 µL PBS, 1% BSA, 0.1% NP40, RT, 1 h; 6 washes; eluted with 500 mM imidazole; PFU counted; expressed as percent of WT protein.
The target of assay [7] is Fibronectin Extra Domain B mutant D68N D70N, hexahistidine-tagged (human). The description is as above.
For assay [8], the target named is Fibronectin Extra Domain B mutant E42Q D68N E64Q, hexahistidine-tagged (human). The assay is described as above.

Entries after “also recorded” stand apart in the source; their conditions may differ. FAM = 5(6)-carboxyfluorescein; Ahx = NCCCCCC(=O)O

T2 sequence (P02751 1271-1359 D1277N/D1314N/D1317N): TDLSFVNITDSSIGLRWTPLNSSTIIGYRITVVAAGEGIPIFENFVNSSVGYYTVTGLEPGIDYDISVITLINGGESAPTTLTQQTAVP

`C[C@@H]1[C@H](O)[C@@H](C)/C=C/C=C/CC/C=C/C=C/C=C/C=C/C(O[C@H]2O[C@H](C)[C@@H](O)[C@H](N)[C@@H]2O)CC2O[C@](O)(CC(O)C(O)CCC(O)CC(O)CC(O)CC(=O)O[C@H]1C)CC(O)C2C(=O)O` (stereo partly shown) [Nystatin]: in the assay on U87-MG cells, the “Effect of inhibitor on the uptake of PL1-AgNPs in U87-MG cells” value (from here on “Effect of inhibitor”) is “statistically significant inhibitory effect”.

On to `CCN(c1nc(N)c(C(=O)N=C(N)N)nc1Cl)C(C)C` [EIPA, 5-(N-ethyl-N-isopropyl)-Amiloride], for which the “Effect of inhibitor” value with U87-MG cells is reported as “statistically significant inhibitory effect; also recorded: strongest”.

As to `C=C1[C@@H](C)[C@H]2[C@H](Cc3ccccc3)NC(=O)[C@]23[C@H](OC(C)=O)/C=C/[C@@](C)(O)C(=O)[C@@H](C)C/C=C/[C@H]3[C@@H]1O` [Cytochalasin D], in the assay with U87-MG cells, the “Effect of inhibitor” value was “statistically significant inhibitory effect”.

Turning to “PL1-NW: iron oxide nanoworms coated with PL1 peptide labeled with FAM fluorophore ({FAM-Ahx}-PPRRGLIKLKTS-OH; also: peptide coated on iron oxide nanoworms)”, in the assay with TNC-C WT and mutants, the “Reduction of PL1-NW binding to TNC-C D39N D45N mutant versus WT TNC-C” value is ~ 100%. The “Reduction of PL1-NW binding to FN-EDB D52N D49N D12N mutant versus WT FN-EDB” value with FN-EDB WT and mutants is ~ 76%.

With `CN(C)CCCN1c2ccccc2Sc2ccc(Cl)cc21` [Chlorpromazine], the “Effect of inhibitor” value in the assay with U87-MG cells is “statistically significant inhibitory effect”.

As for {5(6)‑carboxyfluorescein-Ahx}-PPRRGLIKLKTS-OH [FAM-PL1 peptide (free peptide)], the Kd in assay [1] was determined as 1110 nM; in assay [2], 1140 nM.

B1: Fibronectin Extra Domain B, wild type, hexahistidine-tagged, P02751 E42Q; D68N; E64Q (protein)
chain: EVPQLTDLSFVDITDSSIGLRWTPLNSSTIIGYRITVVAAGQGIPIFEDFVDSSVGYYTVTGLQPGINYDISVITLINGGESAPTTLTQQT
Regarding B1, in assay [3], the percent of parent (% Change over wt FnEDB) amounted to 57.

B2: Fibronectin Extra Domain B, wild type, hexahistidine-tagged, P02751 D68N; D70N (protein)
chain: EVPQLTDLSFVDITDSSIGLRWTPLNSSTIIGYRITVVAAGEGIPIFEDFVDSSVGYYTVTGLEPGINYNISVITLINGGESAPTTLTQQT
On to B2, for which, in assay [3], the percent of parent (% Change over wt FnEDB) came to 29.

B3: Tenascin C C-isoform, wild type, hexahistidine-tagged D13N; E70Q; E88Q (protein)
chain: EALPLLENLTISNINPYGFTVSWMASENAFDSFLVTVVDSGKLLDPQEFTLSGTQRKLELRGLITGIGYQVMVSGFTQGHQTKPLRAQIVT
With B3, the percent of parent (% Change over wt TNC-C) amounted to 33 in assay [4] and 70 in assay [3].

B4: Tenascin C C-isoform, wild type, hexahistidine-tagged E48Q (protein)
chain: EALPLLENLTISDINPYGFTVSWMASENAFDSFLVTVVDSGKLLDPQQFTLSGTQRKLELRGLITGIGYEVMVSGFTQGHQTKPLRAEIVT
On to B4, for which the percent of parent (% Change over wt TNC-C) in assay [4] turned out to be 38; in assay [3], 64.

B5: Tenascin C C-isoform, wild type, hexahistidine-tagged D39N; D45N (protein)
chain: EALPLLENLTISDINPYGFTVSWMASENAFDSFLVTVVNSGKLLNPQEFTLSGTQRKLELRGLITGIGYEVMVSGFTQGHQTKPLRAEIVT
Consider B5, for which the percent of parent (% Change over wt TNC-C) in [3] came out at 0.

Molecule {FAM-Ahx}-PPRRGLIKLKTS-OH (also: peptide coated on iron oxide nanoworms) [PL1-functionalized iron oxide nanoworms (FAM-labelled PL1 peptide on NWs)] came in with a percent reduction of binding against WT FN-EDB in assay [5] of 76%.

Molecule PPRRGLIKLKTS [PL1 peptide displayed on T7 phage] showed a percent decrease of binding against WT FN-EDB in assay [6] of 87%. The percent increase of binding against WT FN-EDB in assay [7] was determined as 142%; in assay [8], 161%.
